Laboratory results published in the supplement of paper PMC11811203.

B1: THAP1; numbered along this chain (parent)
chain: MVQSCSAYGCKNRYDKDKPVSFHKFPLTRPSLCKEWEAAVRRKNFKPTKYSSICSEHFTPDCFKRECNNKLLKENAVPTIFLCTEPHDKKEDLLEPQEQLPPPPLPPPVSQVDAAIGLLMPPLQTPVNLSVFCDHNYTVEDTMHQRKRIHQLEQQVEKLRKKLKTAQQRCRRQERQLEKLKEVVHFQKEKDDVSERGYVILPNDYFEIVEVPA

Variants of: B1
Experiment: THAP1 transcriptional activity (GFP+/GFP- enrichment relative to wild-type constructs) (ratio to WT); higher = more THAP1 activity (PSMB5 reporter activation)
Conditions: with PSMB5 promoter-GFP reporter
Outline: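 Variants were counted by Illumina sequencing of genomic DNA amplicons from BFP+ cells sorted into GFP-bright and GFP-dim bins five days after lentiviral transduction, in duplicate at MOI ~0.3. The library changed each of residues 2–213 of human THAP1 to all 20 amino acids and was introduced into THAP1-knockout HEK-293T cells with mClover3 knocked in at endogenous PSMB5. Activity equals the replicate-mean bright/dim read fold change over the mean of wild-type synonymous constructs.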

Variant | THAP1 transcriptional activity
MVQSCEAYGCKNRYDKDKPVSFHKFPLTRPSLCKEWEAAVRRKNFKPTKYSSICSEHFTPDCFKRECNNKLLKENAVPTIFLCTEPHDKKEDLLEPQEQLPPPPLPPPVSQVDAAIGLLMPPLQTPVNLSVFCDHNYTVEDTMHQRKRIHQLEQQVEKLRKKLKTAQQRCRRQERQLEKLKEVVHFQKEKDDVSERGYVILPNDYFEIVEVPA [S6E] | 0.153
MVQSCSAYGCKNRYDKDKPVSFHKFPLTRPSLCKEWEAAVRRKNFKPTKYSSICSEHFTFDCFKRECNNKLLKENAVPTIFLCTEPHDKKEDLLEPQEQLPPPPLPPPVSQVDAAIGLLMPPLQTPVNLSVFCDHNYTVEDTMHQRKRIHQLEQQVEKLRKKLKTAQQRCRRQERQLEKLKEVVHFQKEKDDVSERGYVILPNDYFEIVEVPA [P60F] | 0.333
MVQSCSAYGCKNRYDKDKPVSFHKFPLTRPSLCKEWEAAVRRKNFKPTKYSSICSEHFTWDCFKRECNNKLLKENAVPTIFLCTEPHDKKEDLLEPQEQLPPPPLPPPVSQVDAAIGLLMPPLQTPVNLSVFCDHNYTVEDTMHQRKRIHQLEQQVEKLRKKLKTAQQRCRRQERQLEKLKEVVHFQKEKDDVSERGYVILPNDYFEIVEVPA [P60W] | 0.256
MVQSCSAYGCKNRYDKDKPVSFHKFPLTRPSLCKEWEAAVRRKNFKPTKYSSICSEHFTPDCFKRECNNKLLKENAVPTIFLCTEPHDKKEDLLEPQEQLPPPPLPPPVSQVDAAIGLLMPPLQTPVNLSVFCDHNYTVEDTMHQRKRIHQLEQQVEKLRIKLKTAQQRCRRQERQLEKLKEVVHFQKEKDDVSERGYVILPNDYFEIVEVPA [K161I] | 0.452
MVQSCSAYGCKNRYDKDKPVSFHKFPLTRPSLCKEWEAAVRRKNFKPTKYSSICSEHFTPDCFKRECNNKLLKENAVPTIFLCTEPHDKKEDLLEPQEQLPPPPLPPPVSQVDAAIGLLMPPLQTPVNLSVFCDHNYTVEDTMHQRKRIHQLEQQVEKLRKKLKTAQQRCRRQERQLEKLKEVVHFQKEKDDVSERGYVIEPNDYFEIVEVPA [L201E] | 0.953
MVQSCSAYGCKNRYDKDKPVSFHKFPLTRPSLCKEWEAAVRRKNFKPTKYSSICSEHFTPDCFKRECNNKLLKENAVPTIFLCTEPHDKKEDLLEPQEQLPPPPLPPPVSQVDAAIGLLMPPLQTPVNLSVKCDHNYTVEDTMHQRKRIHQLEQQVEKLRKKLKTAQQRCRRQERQLEKLKEVVHFQKEKDDVSERGYVILPNDYFEIVEVPA [F132K] | 1
MVQSCSAYGCKNRYDKDKPVSFHKFPLTRPSLCKEWEAAVRRKNFKPTKYSSICSEHFTPDCFKRECNNKLLKENAVPTIFLCTEPHDKKEDLLEPQEQLPPPPLPPPVSQVDAAIGLLMPPLQTPVNLSQFCDHNYTVEDTMHQRKRIHQLEQQVEKLRKKLKTAQQRCRRQERQLEKLKEVVHFQKEKDDVSERGYVILPNDYFEIVEVPA [V131Q] | 0.386
MVQSCSAYGCKNRYDKDKPVSFHKFPLTRPSLCKEWEAAVRRKNFKPTKYSSICSLHFTPDCFKRECNNKLLKENAVPTIFLCTEPHDKKEDLLEPQEQLPPPPLPPPVSQVDAAIGLLMPPLQTPVNLSVFCDHNYTVEDTMHQRKRIHQLEQQVEKLRKKLKTAQQRCRRQERQLEKLKEVVHFQKEKDDVSERGYVILPNDYFEIVEVPA [E56L] | 0.526
MVQSCSAYGCKNRYDKDKPVSFHKFPLTRPSLCKEWEAAVRRKNFKPTKYSSICSEHFTPDCFKRECNNKLLKENAVPTIFLCTEPHDKKEDLLEPQEQRPPPPLPPPVSQVDAAIGLLMPPLQTPVNLSVFCDHNYTVEDTMHQRKRIHQLEQQVEKLRKKLKTAQQRCRRQERQLEKLKEVVHFQKEKDDVSERGYVILPNDYFEIVEVPA [L100R] | 1.46
MVQSCSAYGCKNRYDKDKPVSFHKFPLTRPSLCKEWEAAVRRKNFKPTKYSSICSEHFTPDCFKRECNNKLLKENAVPTIFLCTEPHDHKEDLLEPQEQLPPPPLPPPVSQVDAAIGLLMPPLQTPVNLSVFCDHNYTVEDTMHQRKRIHQLEQQVEKLRKKLKTAQQRCRRQERQLEKLKEVVHFQKEKDDVSERGYVILPNDYFEIVEVPA [K89H] | 1.44
MVQSCSAYGCKNRYDKDKPVSFHKFPLTRPSLCKEWEAAVRRKNFKPTKYSSICSEHFTPDCFKRECNNKLLYENAVPTIFLCTEPHDKKEDLLEPQEQLPPPPLPPPVSQVDAAIGLLMPPLQTPVNLSVFCDHNYTVEDTMHQRKRIHQLEQQVEKLRKKLKTAQQRCRRQERQLEKLKEVVHFQKEKDDVSERGYVILPNDYFEIVEVPA [K73Y] | 0.291
MVQSCSAYGCKNRYDKDKPVSFHKFPLTRPSLCKEWEAAVRRKNFKPTKYSSICSEHFTPDCFTRECNNKLLKENAVPTIFLCTEPHDKKEDLLEPQEQLPPPPLPPPVSQVDAAIGLLMPPLQTPVNLSVFCDHNYTVEDTMHQRKRIHQLEQQVEKLRKKLKTAQQRCRRQERQLEKLKEVVHFQKEKDDVSERGYVILPNDYFEIVEVPA [K64T] | 0.115
MVQSCSAYGCKNRYDKDKPVSFHKFPLTRPSLCKEWEAAVRRKNFKPTKYSSICSEHFTPDCFKRECNNKLLKENAVPTIFLCTEPHDKKEDLLEPQEQLPPPPLPPPVSQVDAAIGLLMPPLQTPVNLSVFCDHNYTVEDTMHQRKRIHQLEQQVEKLRKKLKTAQQRCRRQERQLEKLKENVHFQKEKDDVSERGYVILPNDYFEIVEVPA [V183N] | 1.17
MVQSCSAYGCKNRYDKDKPVSFHKFPLTRPSLCKEWEAAVRRKNFKPTKYSSICSEHFTPDCFKRECNNKLLKEKAVPTIFLCTEPHDKKEDLLEPQEQLPPPPLPPPVSQVDAAIGLLMPPLQTPVNLSVFCDHNYTVEDTMHQRKRIHQLEQQVEKLRKKLKTAQQRCRRQERQLEKLKEVVHFQKEKDDVSERGYVILPNDYFEIVEVPA [N75K] | 0.45
MVQSCSAYGCKNRYDKDKPVSFHKFPLTRPSLCKEWEAAVRRKNFKPTKYSSICSEHFTPDCFKRECNNKLLKETAVPTIFLCTEPHDKKEDLLEPQEQLPPPPLPPPVSQVDAAIGLLMPPLQTPVNLSVFCDHNYTVEDTMHQRKRIHQLEQQVEKLRKKLKTAQQRCRRQERQLEKLKEVVHFQKEKDDVSERGYVILPNDYFEIVEVPA [N75T] | 0.612
MVQSCSAYGCKNRYDKDKPVSFHKFPLTRPSLCKEWEAAVRRKNFKPTKYSSICSEHFTPDCFKRECNNKLLKENAVPTIFLCTEPVDKKEDLLEPQEQLPPPPLPPPVSQVDAAIGLLMPPLQTPVNLSVFCDHNYTVEDTMHQRKRIHQLEQQVEKLRKKLKTAQQRCRRQERQLEKLKEVVHFQKEKDDVSERGYVILPNDYFEIVEVPA [H87V] | 1.56
MVQSCSAYGCKNRYDKDKPVSFHKFPLTRPSLCKEWEAAVRRKNFKPTKYSSICSEHFTPDCFKRECNNKLLKENAVPTIFLCTEPHDKKEDLLEPQEQLPPPPLPPPVSQVDAAIGLLMPPLQTPVNLSVFCDHNYTVEDTMHQRKRIHQLEQQVIKLRKKLKTAQQRCRRQERQLEKLKEVVHFQKEKDDVSERGYVILPNDYFEIVEVPA [E157I] | 1.2
MVQSCSAYGCKNRYDKDKPVSFHKFPLTRPSLCKEWEAAVRRKNFKPTKYSSICSEHFTPDCFKRECNNKLLKENAVPTIFLCTEPHDKKEDLLEPQEQLPPPPLPPPVSQVDAAIGLLMPPLQTPVNLCVFCDHNYTVEDTMHQRKRIHQLEQQVEKLRKKLKTAQQRCRRQERQLEKLKEVVHFQKEKDDVSERGYVILPNDYFEIVEVPA [S130C] | 0.265
MVQSCSAYGCKNRYDKDKPVSFHKFPLTRPSLCKEWEAAVRRKNFKPTKYSSICSEHFTPDCFKRECNNKLLKENAVPTIFLCTEPHDKKEDLLEPQEQLPPPPLPPPVSQVDAAIGLLMPKLQTPVNLSVFCDHNYTVEDTMHQRKRIHQLEQQVEKLRKKLKTAQQRCRRQERQLEKLKEVVHFQKEKDDVSERGYVILPNDYFEIVEVPA [P122K] | 0.728
MVQSCSAYGCKNRYDKDKPVSFHKFPLTRPSLCKEWEAAVRRKNFKETKYSSICSEHFTPDCFKRECNNKLLKENAVPTIFLCTEPHDKKEDLLEPQEQLPPPPLPPPVSQVDAAIGLLMPPLQTPVNLSVFCDHNYTVEDTMHQRKRIHQLEQQVEKLRKKLKTAQQRCRRQERQLEKLKEVVHFQKEKDDVSERGYVILPNDYFEIVEVPA [P47E] | 0.173
MVQSCSAYGCKNRYDKDKPVSFHKFPLTRPSLCKEWEAAVRRKNFKPTKYSSICSEHFTPDCFKRECNNKLLKENAVMTIFLCTEPHDKKEDLLEPQEQLPPPPLPPPVSQVDAAIGLLMPPLQTPVNLSVFCDHNYTVEDTMHQRKRIHQLEQQVEKLRKKLKTAQQRCRRQERQLEKLKEVVHFQKEKDDVSERGYVILPNDYFEIVEVPA [P78M] | 0.495
MVQSCSAYGCKNRYDKWKPVSFHKFPLTRPSLCKEWEAAVRRKNFKPTKYSSICSEHFTPDCFKRECNNKLLKENAVPTIFLCTEPHDKKEDLLEPQEQLPPPPLPPPVSQVDAAIGLLMPPLQTPVNLSVFCDHNYTVEDTMHQRKRIHQLEQQVEKLRKKLKTAQQRCRRQERQLEKLKEVVHFQKEKDDVSERGYVILPNDYFEIVEVPA [D17W] | 0.509
MVQSCSAYGCKNRYDKDKPVSFHKFPLTRPSLCKEWEAAVRRKNFKPTKYSSICSEHFTPDCFKRECNNKLLKENAVPTIFLCTEPHDKKEDLLEPQEQLPPPPLPPPVSQVDAAIGLLMPPLQTPVNLSVFCDHNYTVEDTMHQRKRIHQLEQQVEKLRKKLKTAQQRCRVQERQLEKLKEVVHFQKEKDDVSERGYVILPNDYFEIVEVPA [R172V] | 0.288
MVQSCSAYGCKNRYDKDKPVSFHKFPLTRPSLCKEWEAAVRRKNFKPTKYSSICSEHFTPDCFKRECNNKLLKENAVPTIFLCTEPHDKKEDLLEPQEQLPPPPLPPPVSQVDAAIGLLMPPLQTPVNLSVFCDHNYTVEDTMHQRKRIHQLEQQVEKLRKKLKTAQQRCRRQERQLEKLKEVVHFQKEKDDVSERGYVILPNDYFEIVEVSA [P212S] | 1.34
MVQSCSAYGCKNRYDKDKPVSKHKFPLTRPSLCKEWEAAVRRKNFKPTKYSSICSEHFTPDCFKRECNNKLLKENAVPTIFLCTEPHDKKEDLLEPQEQLPPPPLPPPVSQVDAAIGLLMPPLQTPVNLSVFCDHNYTVEDTMHQRKRIHQLEQQVEKLRKKLKTAQQRCRRQERQLEKLKEVVHFQKEKDDVSERGYVILPNDYFEIVEVPA [F22K] | 0.0858
MVQSCSAYGCKNRYDKDKPVSFHKFPLTRPSLCKEWEAAVRRKNFKPTKYSSICSETFTPDCFKRECNNKLLKENAVPTIFLCTEPHDKKEDLLEPQEQLPPPPLPPPVSQVDAAIGLLMPPLQTPVNLSVFCDHNYTVEDTMHQRKRIHQLEQQVEKLRKKLKTAQQRCRRQERQLEKLKEVVHFQKEKDDVSERGYVILPNDYFEIVEVPA [H57T] | 0.109
MVQSCSAYGCKNRYDKDKAVSFHKFPLTRPSLCKEWEAAVRRKNFKPTKYSSICSEHFTPDCFKRECNNKLLKENAVPTIFLCTEPHDKKEDLLEPQEQLPPPPLPPPVSQVDAAIGLLMPPLQTPVNLSVFCDHNYTVEDTMHQRKRIHQLEQQVEKLRKKLKTAQQRCRRQERQLEKLKEVVHFQKEKDDVSERGYVILPNDYFEIVEVPA [P19A] | 0.691
MVQSCSAYGCKNRYDKDKPVSFHKFPLTRPSLCKEWEAAVRRKNDKPTKYSSICSEHFTPDCFKRECNNKLLKENAVPTIFLCTEPHDKKEDLLEPQEQLPPPPLPPPVSQVDAAIGLLMPPLQTPVNLSVFCDHNYTVEDTMHQRKRIHQLEQQVEKLRKKLKTAQQRCRRQERQLEKLKEVVHFQKEKDDVSERGYVILPNDYFEIVEVPA [F45D] | 0.0693
